For one substance, t1/2α of hydrolysis and t1/2β of hydrolysis results are on record in patent publication US20090203706A1, “LYSINE-BASED POLYMERIC LINKERS” (priority 2006, published 2009).

This data set in a line: Rate of hydrolysis of PEG prodrugs in rat plasma (HPLC). It counts as in vitro ADME. The conditions noted are these: 37° C., disappearance of PEG derivative. As to the method: The rates of hydrolysis were obtained by employing a C8 reversed phase column (Zorbax® SB-C8) using a gradient mobile phase made of (a) 0.1 M triethylammonium acetate buffer and (b) acetonitrile. A flow rate of 1 mL/min was used, and chromatograms were monitored using a UV detector. For hydrolysis in buffer, PEG derivatives were dissolved in 0.1 M pH 7.4 PBS at a concentration of 5 mg/mL, while for hydrolysis in plasma, the derivatives were dissolved in distilled water at a concentration of 20 mg/100 μL and 900 μL of rat plasma was added to this solution. The mixture was vortexed for 2 min and divided into 2 mL glass vials with 100 μL of the aliquot per each vial. The solutions were incubated at 37° C. for various periods of time. A mixture of methanol-acetonitrile (1:1, v/v, 400 μL) was added to a vial at the proper interval and the mixture was vortexed for 1 min, followed by filtration through […] filter membrane (optionally followed by a second filtration through […] filter membrane). An aliquot of 20 μL of the filtrate was injected into the HPLC. On the basis of the peak area, the amounts of native compound and PEG derivative were estimated, and the half-life of each compound in different media was calculated using linear regression analysis from the disappearance of PEG derivative.

As to PEG-[Lys (DGA-SCH AF)2]2 [Compound 12a], the t1/2α of hydrolysis was 5 h and the t1/2β of hydrolysis is 15 h.
